In PMC4404499 (The Biochemical journal, 2014):

How the values were obtained:
Assay in all cases: pull-down
GST-tagged TRIM3 N48A = biological target: T1, GST-tagged TRIM3 N48A (mouse, UniProt Q9R1R2 1-744, N48A)
T1 sequence (looked up): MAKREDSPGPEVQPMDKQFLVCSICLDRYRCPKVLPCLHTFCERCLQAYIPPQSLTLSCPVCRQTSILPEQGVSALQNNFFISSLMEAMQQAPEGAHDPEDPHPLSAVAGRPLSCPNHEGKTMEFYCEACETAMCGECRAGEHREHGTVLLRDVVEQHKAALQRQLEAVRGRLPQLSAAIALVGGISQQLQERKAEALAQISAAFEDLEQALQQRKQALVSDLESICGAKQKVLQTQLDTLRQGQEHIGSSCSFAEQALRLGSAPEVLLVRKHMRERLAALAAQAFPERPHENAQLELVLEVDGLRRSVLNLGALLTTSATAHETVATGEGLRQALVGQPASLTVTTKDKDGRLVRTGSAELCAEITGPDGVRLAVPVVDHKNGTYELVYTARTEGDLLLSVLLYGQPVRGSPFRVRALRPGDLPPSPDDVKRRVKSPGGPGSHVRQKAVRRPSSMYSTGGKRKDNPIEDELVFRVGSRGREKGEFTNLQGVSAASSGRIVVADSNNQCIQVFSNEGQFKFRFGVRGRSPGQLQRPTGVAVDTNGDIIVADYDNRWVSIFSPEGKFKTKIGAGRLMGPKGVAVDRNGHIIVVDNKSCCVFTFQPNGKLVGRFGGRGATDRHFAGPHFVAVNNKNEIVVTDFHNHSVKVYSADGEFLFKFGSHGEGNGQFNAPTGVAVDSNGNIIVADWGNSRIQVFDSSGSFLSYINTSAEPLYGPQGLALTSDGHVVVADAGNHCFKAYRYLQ

GST-tagged TRIM3 I50A = biological target: T2, GST-tagged TRIM3 I50A (mouse, UniProt Q9R1R2 1-744, I50A)
T2 sequence (looked up): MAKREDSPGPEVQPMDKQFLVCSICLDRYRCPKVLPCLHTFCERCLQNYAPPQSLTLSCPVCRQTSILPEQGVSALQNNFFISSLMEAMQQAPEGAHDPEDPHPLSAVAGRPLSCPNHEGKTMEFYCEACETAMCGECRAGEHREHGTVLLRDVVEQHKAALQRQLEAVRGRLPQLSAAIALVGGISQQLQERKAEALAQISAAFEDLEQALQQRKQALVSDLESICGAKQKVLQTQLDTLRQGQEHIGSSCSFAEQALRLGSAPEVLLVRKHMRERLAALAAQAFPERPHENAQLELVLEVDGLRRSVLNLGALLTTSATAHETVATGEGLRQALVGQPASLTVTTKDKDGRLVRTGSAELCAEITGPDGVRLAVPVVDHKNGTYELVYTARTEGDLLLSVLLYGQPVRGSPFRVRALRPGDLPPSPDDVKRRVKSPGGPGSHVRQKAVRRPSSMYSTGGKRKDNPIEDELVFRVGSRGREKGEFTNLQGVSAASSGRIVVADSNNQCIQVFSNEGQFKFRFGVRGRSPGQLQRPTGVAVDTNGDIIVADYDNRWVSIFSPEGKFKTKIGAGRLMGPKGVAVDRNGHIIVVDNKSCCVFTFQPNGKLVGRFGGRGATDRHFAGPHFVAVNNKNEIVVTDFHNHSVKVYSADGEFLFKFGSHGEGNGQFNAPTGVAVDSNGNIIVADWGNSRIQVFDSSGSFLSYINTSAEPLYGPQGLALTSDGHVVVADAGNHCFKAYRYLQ

GST-tagged TRIM3 Y49A = biological target: T3, GST-tagged TRIM3 Y49A (mouse, UniProt Q9R1R2 1-744, Y49A)
T3 sequence (looked up): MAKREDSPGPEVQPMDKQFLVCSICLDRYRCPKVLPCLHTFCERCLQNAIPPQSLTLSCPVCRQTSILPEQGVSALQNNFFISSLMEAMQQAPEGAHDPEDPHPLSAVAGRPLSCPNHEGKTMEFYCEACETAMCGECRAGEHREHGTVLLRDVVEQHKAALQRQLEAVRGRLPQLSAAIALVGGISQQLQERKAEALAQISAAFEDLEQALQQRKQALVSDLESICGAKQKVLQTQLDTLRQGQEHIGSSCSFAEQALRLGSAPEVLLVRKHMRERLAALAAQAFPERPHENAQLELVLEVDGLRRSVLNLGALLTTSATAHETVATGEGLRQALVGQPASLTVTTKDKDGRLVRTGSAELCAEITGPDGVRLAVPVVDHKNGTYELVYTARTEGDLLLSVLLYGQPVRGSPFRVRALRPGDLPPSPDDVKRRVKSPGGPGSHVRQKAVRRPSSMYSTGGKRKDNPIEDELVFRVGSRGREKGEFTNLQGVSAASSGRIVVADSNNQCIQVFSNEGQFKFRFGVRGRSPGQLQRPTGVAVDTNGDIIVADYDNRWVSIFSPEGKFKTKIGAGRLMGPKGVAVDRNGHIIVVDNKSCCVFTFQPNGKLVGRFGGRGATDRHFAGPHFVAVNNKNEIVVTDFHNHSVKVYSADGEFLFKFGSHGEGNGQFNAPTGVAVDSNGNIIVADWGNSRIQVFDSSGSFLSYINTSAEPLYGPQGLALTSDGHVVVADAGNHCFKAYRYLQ

GST-tagged TRIM3 L55A = biological target: T4, GST-tagged TRIM3 L55A (mouse, UniProt Q9R1R2 1-744, L55A)
T4 sequence (looked up): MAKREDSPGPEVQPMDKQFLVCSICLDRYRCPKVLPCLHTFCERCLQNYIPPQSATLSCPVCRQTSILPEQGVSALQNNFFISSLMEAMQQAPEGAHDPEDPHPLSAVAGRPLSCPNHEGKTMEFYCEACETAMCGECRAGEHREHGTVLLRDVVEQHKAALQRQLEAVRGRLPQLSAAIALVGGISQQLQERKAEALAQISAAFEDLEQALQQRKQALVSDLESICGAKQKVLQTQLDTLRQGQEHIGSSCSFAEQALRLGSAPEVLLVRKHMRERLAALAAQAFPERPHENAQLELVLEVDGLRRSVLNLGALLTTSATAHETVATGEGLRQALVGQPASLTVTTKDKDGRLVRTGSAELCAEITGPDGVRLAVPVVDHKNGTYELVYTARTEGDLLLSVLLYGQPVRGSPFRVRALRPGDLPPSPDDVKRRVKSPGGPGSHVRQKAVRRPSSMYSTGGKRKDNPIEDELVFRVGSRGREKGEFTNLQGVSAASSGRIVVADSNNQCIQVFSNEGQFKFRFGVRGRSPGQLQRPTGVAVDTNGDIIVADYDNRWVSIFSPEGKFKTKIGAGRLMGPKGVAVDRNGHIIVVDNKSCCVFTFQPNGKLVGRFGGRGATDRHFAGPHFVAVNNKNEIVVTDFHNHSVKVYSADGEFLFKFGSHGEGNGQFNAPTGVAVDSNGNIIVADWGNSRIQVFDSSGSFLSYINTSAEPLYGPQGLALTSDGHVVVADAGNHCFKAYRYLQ

Measured: binding result

B1: His-tagged p21 (wild-type) (natural protein, UniProt P39689 1-159, looked up)
chain: MSNPGDVRPVPHRSKVCRCLFGPVDSEQLRRDCDALMAGCLQEARERWNFDFVTETPLEGNFVWERVRSLGLPKVYLSPGSRSRDDLGGDKRPSTSSALLQGPAPEDHVALSLSCTLVSERPEDSPGGPGTSQGRKRRQTSLTDFYHSKRRLVFCKRKP
binds: all assays above
